# Experimental data as given in patent US20060211087A1 (SALK INSTITUTE FOR BIOLOGICAL STUDIES, published 2006).
# B1: BMP7 (ligand, UniProt P18075 293-431, looked up)
# chain: STGSKQRSQNRSKTPKNQEALRMANVAENSSSDQRQACKKHELYVSFRDLGWQDWIIAPEGYAAYYCEGECAFPLNSYMNATNHAIVQTLVHFINPETVPKPCCAPTQLNAISVLYFDDSSNVILKKYRNMVVRACGCH
# modifications: 125I-iodinated by a modified Chloramine-T procedure (tracer); unlabeled form used as competitor
# notes: also called unlabeled BMP7
# Target: T1, CRFR2β (CRF receptor 2 beta) (human, UniProt Q60748 35-411 (mouse entry))
# T1 construct: also called CRFR2b; CRFRIIβ
# Assay: 125I-BMP7 tracer (5x10^5 cpm) with or without unlabeled BMP7, Ni-NTA pull-down, gamma counting; CRFR2β as control receptor
# Experimental: In a particular example, BMPRII, ALK3 and CRFR2β were incubated with 5×10⁵ cpm ¹²⁵I-BMP7 tracer in the presence or absence of 40 nM unlabeled BMP7 as competitor. BMPRII and ALK3 are type II and type I receptors of BMP7, respectively. CRFR2β is a G-protein coupled receptor with no known affinity for BMP7 and was included as a control. Samples were prepared in triplicate in 1.7 ml eppendorf tubes in a final volume of 1 ml binding buffer (150 mM NaCl, 50 mM Tris (pH 7.5), 0.1% BSA). Binding was performed for […] at room temperature. After an initial 60 minutes of binding, 20 μl of 50% Ni—NTA resin (Qiagen) was added to each sample and allowed to bind for the balance of the […] incubation period. Complexes were precipitated by centrifugation and washed three times in 1 ml binding buffer. After the final wash, bound ¹²⁵I-BMP7 tracer was quantified in a gamma counter. BMP7 was iodinated using a modified Cloramine-T procedure (see, e.g., Lawler et al., J. Neurosci. Meth., 49:141-53, 1993).
# T1 sequence (Q60748 other isoform, or with tags, fused parts or gaps): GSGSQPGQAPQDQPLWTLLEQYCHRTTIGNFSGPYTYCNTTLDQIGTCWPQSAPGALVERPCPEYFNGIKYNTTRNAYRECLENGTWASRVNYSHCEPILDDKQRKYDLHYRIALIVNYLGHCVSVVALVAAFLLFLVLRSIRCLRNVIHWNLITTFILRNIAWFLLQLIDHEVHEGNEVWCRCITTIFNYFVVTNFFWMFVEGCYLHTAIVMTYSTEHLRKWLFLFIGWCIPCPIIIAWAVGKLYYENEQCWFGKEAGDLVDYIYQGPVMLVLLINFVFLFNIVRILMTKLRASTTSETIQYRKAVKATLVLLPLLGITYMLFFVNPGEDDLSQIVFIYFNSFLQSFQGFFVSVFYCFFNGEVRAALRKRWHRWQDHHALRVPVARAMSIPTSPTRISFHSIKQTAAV
binder,measurement,value
B1,binding result,no binding (tested: 40 nM unlabeled BMP7)
